Reference: article PMC8138767, “Intrinsically disordered substrates dictate SPOP subnuclear localization and ubiquitination activity” (The Journal of Biological Chemistry, 2021)
Where “and” joins values, the source holds several entries; their conditions need not be identical. Equal values may be shown once. Where no end group is shown, it is not given here.

How the values were obtained:
[1] = system: SPOP–MATH substrate-binding groove; assay: 1H,15N HSQC NMR titration of 15N–SPOP–MATH with Pdx1 peptides; set-up: species or system human
Description: (§1) NMR data collection and analysis
(§2) NMR data were collected on Bruker Avance III 500, 600, or 850 MHz spectrometers equipped with TCI triple-resonance cryoprobes. All data collection and initial processing were carried out in TopSpin (Bruker). NMR experiments on all proteins were collected in 50 mM sodium phosphate, pH 6.5, 50 mM sodium chloride, 5 mM DTT, 0.01% sodium azide, and 5% D2O unless otherwise noted.
Addition of Pdx1 peptides into ^15N–SPOP–MATH was monitored by sensitivity-enhanced ^1H, ^15N HSQC. The peptides were mixed in a 4:1 peptide:SPOP mole ratio with between 0.1 and 0.2 mM ^15N–SPOP–MATH. Each experiment consisted of 16 scans and 2048 × 256 complex data points. Spectral comparison was carried out in NMRFAM-Sparky using the assigned ^15N-SPOP-MATH spectrum as a reference. Integrated peak intensities before and after the addition of peptide were compared and normalized within each dataset, and the percent change (1 − Ibound/Iunbound) was plotted on the surface of published SPOP–MATH cocrystal structures (PDB IDs: 3IVV or 6F8F) ([25], [33]) using PyMol (PyMOL Molecular Graphics System, Version 2.1.1, Schrödinger, LLC). In each case, surface coloring corresponds to thresholds of intensity change, where the greatest resonance intensity changes are reflected by the lightest color. […]

[2] = target: T1, SPOP–MATH (residues 28–166) (Homo sapiens, UniProt O43791); assay: Competition fluorescence anisotropy, displacement of f-Puc from SPOP–MATH; assay type: binding; conditions: competition FA
T1 construct: glutathione S-transferase (GST) (N, cleaved yes); 6X His (N, cleaved yes); made in house; host or cells: E. coli BL-21(DE3)
From the text: An Escherichia coli codon-optimized DNA sequence encoding amino acids 205 to 283 of the human Pdx1 sequence (Pdx1-C) in the multiple cloning site of pET49b(+) was purchased from GeneArt (Thermo Fisher). The pET49b(+) backbone encodes for N-terminal glutathione S-transferase and 6X His tags, followed by a 3C protease recognition motif. In all experiments described herein, a mutant containing an exogenous tryptophan at the N terminus of the human Pdx1-C sequence was used for the purposes of quantitation. Mutations in Pdx1-C were generated by Q5 site-directed mutagenesis (New England Biolabs) with primers designed on NEBbasechanger.com according to the manufacturer protocol. Similarly, an E. coli–optimized DNA sequence encoding residues 28 to 166 of human SPOP (SPOP–MATH) was purchased in pET49b(+) from GeneArt. […] A plasmid encoding His–SUMO–SPOP human residues 28 to 359 harboring a tobacco etch virus protease recognition site directly N terminal to the beginning of the native SPOP protein sequence was generated previously ([21]).
All FA experiments were conducted in 50 mM sodium phosphate, pH 6.5, 50 mM sodium chloride, 5 mM DTT, 1% BSA, and 0.01% Triton X-100. In all experiments, the source of fluorescence signal was f-Puc purchased from GenScript, at a final concentration of 40 nM. For direct FA measurements, SPOP–MATH or SPOP28–359 of concentrations between 0.001 and 300 μM was added to wells of 96- or 384-well plates containing f-Puc and buffer. For competition-mode experiments, serial dilutions of each competitor (Pdx1 peptide or recombinant protein) were prepared ranging from ∼0.01 μM to ∼2 mM (concentration range varied based on peptide solubility) in wells of 96- or 384-well plates containing 40 nM f-Puc and 6 μM SPOP–MATH or SPOP28–359. The fluorescence polarization of each well was measured (from which FA was calculated) using either a TECAN Infinite M1000 Pro or BioTek Synergy 4 fluorometer. All experiments were performed with at least three technical replicates. FA data points were fit to a complete competitive binding model ([23]) to determine dissociation constants using in-house Python scripts (see Quantification and statistical analysis).
All titrations were performed in triplicate for rigor. Direct FA titrations were performed to determine the dissociation constants of the fluorescent probe toward SPOP constructs. Direct titration data were fit according to equation 6 in ([54]). Competition mode titration data were fit according to the fitting function in ([23]). Average dissociation constants and standard error from the mean for all constructs from competition experiments may be found in Table S4. The python scripts used in plotting and fitting may be found at https://github.com/idpemery/spop-pdx1.

SPOP28–359 = target: T2, SPOP28–359 (Homo sapiens, UniProt O43791); assay: Competition fluorescence anisotropy, displacement of f-Puc from oligomeric SPOP28–359; assay type: binding; conditions: competition FA; 40 nM f-Puc, 6 μM SPOP28–359; 50 mM sodium phosphate pH 6.5, 50 mM NaCl, 5 mM DTT, 1% BSA, 0.01% Triton X-100; complete competitive binding model; ± standard deviation of three independent replicates (Table S4)
T2 construct: A plasmid encoding His–SUMO–SPOP human residues 28 to 359; His-SUMO (N, cleaved yes); made in house; host or cells: E. coli Rosetta BL-21(DE3)
From the text: An Escherichia coli codon-optimized DNA sequence encoding amino acids 205 to 283 of the human Pdx1 sequence (Pdx1-C) in the multiple cloning site of pET49b(+) was purchased from GeneArt (Thermo Fisher). The pET49b(+) backbone encodes for N-terminal glutathione S-transferase and 6X His tags, followed by a 3C protease recognition motif. In all experiments described herein, a mutant containing an exogenous tryptophan at the N terminus of the human Pdx1-C sequence was used for the purposes of quantitation. Mutations in Pdx1-C were generated by Q5 site-directed mutagenesis (New England Biolabs) with primers designed on NEBbasechanger.com according to the manufacturer protocol. […]
All FA experiments were conducted in 50 mM sodium phosphate, pH 6.5, 50 mM sodium chloride, 5 mM DTT, 1% BSA, and 0.01% Triton X-100. In all experiments, the source of fluorescence signal was f-Puc purchased from GenScript, at a final concentration of 40 nM. […] The fluorescence polarization of each well was measured (from which FA was calculated) using either a TECAN Infinite M1000 Pro or BioTek Synergy 4 fluorometer. […] FA data points were fit to a complete competitive binding model ([23]) to determine dissociation constants using in-house Python scripts (see Quantification and statistical analysis). […]

[3] = target: f-Puc, fluorescein-labeled peptide of the SPOP substrate Puc (residues 91-106); assay: fluorescence polarisation; direct fluorescence anisotropy titration: SPOP construct (0.001-300 μM) added to 40 nM f-Puc; 50 mM sodium phosphate pH 6.5, 50 mM NaCl, 5 mM DTT, 1% BSA, 0.01% Triton X-100
[4] = target: f-Puc (fluorescein-labeled Puc peptide); assay: fluorescence polarisation; direct fluorescence anisotropy: SPOP construct 0.001-300 μM added to 40 nM f-Puc; 50 mM sodium phosphate pH 6.5, 50 mM NaCl, 5 mM DTT, 1% BSA, 0.01% Triton X-100
[5] = target: T3, SPOP–MATH (human SPOP residues 28–166) (human, UniProt O43791 28-166); assay: fluorescence polarisation; competition fluorescence anisotropy: competitor ~0.01 μM to ~2 mM against 40 nM f-Puc and 6 μM SPOP–MATH; 50 mM sodium phosphate pH 6.5, 50 mM NaCl, 5 mM DTT, 1% BSA, 0.01% Triton X-100; complete competitive binding fit; conditions: both partners purified
T3 construct: N-terminal Gly–Pro–Gly cloning artifact left after 3C protease; speckle-type POZ protein (SPOP), human, MATH domain, residues 28-166; Uniformly 15N (or 13C,15N) enriched for the NMR experiments in which it is the observed protein; also called monomeric SPOP–MATH; ^15N–SPOP–MATH; source: E. coli BL-21(DE3), purified (Ni-NTA, 3C protease, second Ni-NTA, Sephacryl S100 gel filtration); not shown: …

[6] = target: T4, SPOP-MATH (human SPOP residues 28-166) (human, UniProt O43791 28-166); assay: fluorescence polarisation; competition fluorescence anisotropy: competitor (~0.01 μM to ~2 mM) displaces 40 nM f-Puc from 6 μM SPOP-MATH or SPOP28-359; complete competitive binding fit; 50 mM sodium phosphate pH 6.5, 50 mM NaCl, 5 mM DTT, 1% BSA, 0.01% Triton X-100; conditions: both partners purified
T4 construct: N-terminal Gly-Pro-Gly cloning artefact left after 3C protease; speckle-type POZ protein (SPOP), human, MATH domain, residues 28-166; uniformly 15N-labelled for the NMR experiments; also called 15N-SPOP-MATH; source: E. coli BL-21(DE3), purified (Ni-NTA, 3C protease, second Ni-NTA, Sephacryl S100); not shown: GST, N-terminal, cleaved; His6, N-terminal, cleaved

[7] = target: T5, SPOP28-359 (human SPOP residues 28-359) (human, UniProt O43791 28-359); assay: as above; conditions: both partners purified
T5 construct: also called oligomeric SPOP; source: E. coli Rosetta BL-21(DE3), purified (Ni-NTA, TEV protease, second Ni-NTA, Superdex 200); not shown: His, N-terminal, cleaved; SUMO, N-terminal, cleaved

[8] = target: T1, SPOP–MATH (residues 28–166); assay: (HACA)CON NMR of 13C,15N–Pdx1-C with SPOP–MATH; assay type: binding; conditions: 13C direct-detect (HACA)CON, 500 MHz, 25 °C, pH 6.5
Description: as §1, §2
Addition of SPOP–MATH into ^13C, ^15N–Pdx1-C was monitored by ^13C direct-detect (HACA)CON experiments ([44]) consisting of 16 scans and 1024 × 128 complex data points. SPOP–MATH was added to ^13C, ^15N–Pdx1-C such that the final concentrations were 0.35 mM and 0.37 mM, respectively. Peaks from each spectrum were integrated and used to calculate a percent intensity change in Pdx1-C resonances after binding of SPOP–MATH. SPOP28–359 was added to ^13C, ^15N–Pdx1-C at a 4-fold molar excess and detected by HSQC or (HACA)CON. Line broadening precluded residue-specific analysis of SPOP28–359 and Pdx1-C.

[9] = target: T6, SPOP_(28–359) (human SPOP residues 28–359) (human, UniProt O43791 28-359); assay: fluorescence polarisation; competition fluorescence anisotropy: competitor against 40 nM f-Puc and 6 μM SPOP_(28–359); 50 mM sodium phosphate pH 6.5, 50 mM NaCl, 5 mM DTT, 1% BSA, 0.01% Triton X-100; complete competitive binding fit; conditions: both partners purified
T6 construct: also called His–SUMO–SPOP (before cleavage); source: E. coli Rosetta BL-21(DE3), purified (Ni-NTA, TEV protease, second Ni-NTA, Superdex 200); not shown: His, N-terminal, cleaved; SUMO, N-terminal, cleaved
T6 sequence (O43791 28-359): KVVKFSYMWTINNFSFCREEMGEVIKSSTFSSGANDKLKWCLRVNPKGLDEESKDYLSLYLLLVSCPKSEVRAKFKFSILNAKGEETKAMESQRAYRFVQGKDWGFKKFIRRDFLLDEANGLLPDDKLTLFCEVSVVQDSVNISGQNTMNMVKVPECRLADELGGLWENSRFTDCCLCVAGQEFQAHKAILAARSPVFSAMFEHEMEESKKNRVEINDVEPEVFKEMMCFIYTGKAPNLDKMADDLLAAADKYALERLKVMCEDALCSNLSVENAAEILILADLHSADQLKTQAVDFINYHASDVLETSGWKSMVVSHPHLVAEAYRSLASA

T1 sequence (O43791 28-166): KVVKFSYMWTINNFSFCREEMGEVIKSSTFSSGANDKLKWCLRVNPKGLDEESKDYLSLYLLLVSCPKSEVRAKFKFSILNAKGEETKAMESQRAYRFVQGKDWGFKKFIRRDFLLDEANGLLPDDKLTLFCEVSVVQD
T4 sequence (O43791 other isoform, or with tags, fused parts or gaps): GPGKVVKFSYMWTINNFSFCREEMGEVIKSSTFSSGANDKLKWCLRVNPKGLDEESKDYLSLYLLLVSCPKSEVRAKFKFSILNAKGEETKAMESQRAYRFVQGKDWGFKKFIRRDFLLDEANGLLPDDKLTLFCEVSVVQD
T5 sequence (O43791 28-359): as the sequence (O43791 28-359) above
T3 sequence (O43791 other isoform, or with tags, fused parts or gaps): as the sequence (O43791 other isoform, or with tags, fused parts or gaps) above
T2 sequence (O43791 28-359): as the sequence (O43791 28-359) above

Ac-GVAEPEQDCAVTSGEELLALPP [Pdx1–SBM1, SB motif 1 peptide of Pdx1 (residues 224–236)]
relative SB affinity from mixed-peptide NMR ([1]; SBM1 and SBM2 peptides added to 15N-SPOP-MATH in equimolar ratios): higher SB affinity of Pdx1–SBM1 than Pdx1–SBM2
HSQC spectral changes in SPOP–MATH ([1]; peptide:15N-SPOP–MATH 4:1, 0.1–0.2 mM 15N–SPOP–MATH, 50 mM sodium phosphate pH 6.5, 50 mM NaCl, 5 mM DTT): spectral changes are primarily localized to the substrate-binding groove

ENLACDEVTSTTSSST [Puc, reference compound]
Kd ([2]; 40 nM f-Puc, 6 μM SPOP–MATH, 50 mM sodium phosphate pH 6.5, 50 mM NaCl, 5 mM DTT, 1% BSA, 0.01% Triton X-100, complete competitive binding model, ± standard deviation of three independent replicates (Table S4)): 2600 ± 400 nM
Kd (SPOP28–359): 2600 ± 1000 nM

SPOP28-359 (human SPOP residues 28-359) (from UniProt O43791 28-359) (domain or fragment)
Kd [3]: 2550 nM and 2620 nM

SPOP-MATH (human SPOP residues 28-166) (from UniProt O43791 28-166) (domain or fragment)
Kd [3]: 2620 nM and 2550 nM

SPOP–MATH (human SPOP residues 28–166) (from UniProt O43791 28-166) (domain or fragment)
Kd [4]: 2600 nM

B1: Pdx1–SBM1f peptide (Pdx1 residues 224–234) (peptide)
peptide: EQDCAVTSGEE
notes: human Pdx1 residues 224-234, shorter SBM1 peptide used for fluorescence anisotropy; source: synthetic peptide (Tufts University Core Facility, HPLC purified)
Kd [5]: 140000 nM

B2: Puc peptide (residues 91-106), unlabeled (peptide)
peptide: ENLACDEVTSTTSSST
notes: puckered protein (Puc), residues 91-106; also called dark Puc peptide; unlabeled Puc peptide; source: synthetic peptide (Tufts University Core Facility, HPLC purified)
Kd [6]: 2600 nM
Kd [7]: 2600 nM

B3: Pdx1-C (C-terminal intrinsically disordered region of human Pdx1) (domain or fragment)
chain: GPGWEDKKRGGGTAVGGGGVAEPEQDCAVTSGEELLALPPPPPPGGAVPPAAPVAAREGRLPPGLSASPQPSSVAPRRPQEPR
notes: N-terminal Gly-Pro-Gly cloning artefact left after 3C protease; pancreatic and duodenal homeobox 1 (Pdx1), human, amino acids 205-283 by the methods; the exogenous tryptophan may be what is counted as residue 204 (surmise); also called 13C,15N-Pdx1-C; source: E. coli BL-21(DE3), purified (Ni-NTA, 3C protease, second Ni-NTA, heat, anion exchange flow-through); not shown: GST, N-terminal, cleaved; …
Kd [6]: 32000 nM
Kd [7]: 3500 nM

B4: Pdx1-C: recombinant human Pdx1 C-terminal intrinsically disordered region (residues 204–283) (protein)
chain: B3 chain
modifications: left off: GST, N-terminal, cleaved | His6, N-terminal, cleaved
apparent affinity for SPOP–MATH, in words ([2]; Fig. 5 and Table S4): higher apparent affinity for SPOP–MATH than the strongest individual SB motif alone
resonance intensity loss in Pdx1-C on addition of SPOP-MATH [8]: marked resonance intensity loss in two specific locations: amino acids 220 to 235 (highlighted in teal) and amino acids 265 to 275

B5: Pdx1-C (C-terminal intrinsically disordered region of human Pdx1) (domain or fragment)
chain: B3 chain
notes: N-terminal Gly–Pro–Gly cloning artifact left after 3C protease; pancreatic and duodenal homeobox 1 (Pdx1), human, amino acids 205-283 (methods); The results' 204–283 may count the added tryptophan as position 204; 13C,15N enriched for NMR; also called ^13C, ^15N-Pdx1-C; Pdx1 C terminus; source: E. coli BL-21(DE3), purified (Ni-NTA, 3C protease, second Ni-NTA, heat, anion exchange flow-through); …
fold enhancement in binding affinity compared with SPOP–MATH [9]: ~10 fold
